Where “and” joins values, the source holds several entries; their conditions need not be identical. Identical values can stand only once.
B1: non-Fc-conjugated recombinant human resistin protein, Q9HD89 19-108 (ligand)
chain: KTLCSMEEAINERIQEVAGSLIFRAISSIGLECQSVTSRGDLATCPRGFAVTGCTCGSACGSWDVRAETTCHCQCAGMDWTGARCCRVQP
B2: adenovirus-delivered human resistin, Q9HD89 19-108 (ligand)
chain: B1 chain

Legend:
[1] = biological target: T1, recombinant human CAP1 (human), Q01518; assay: ELISA; conditions: remark: other sources report otherwise
T1 chain: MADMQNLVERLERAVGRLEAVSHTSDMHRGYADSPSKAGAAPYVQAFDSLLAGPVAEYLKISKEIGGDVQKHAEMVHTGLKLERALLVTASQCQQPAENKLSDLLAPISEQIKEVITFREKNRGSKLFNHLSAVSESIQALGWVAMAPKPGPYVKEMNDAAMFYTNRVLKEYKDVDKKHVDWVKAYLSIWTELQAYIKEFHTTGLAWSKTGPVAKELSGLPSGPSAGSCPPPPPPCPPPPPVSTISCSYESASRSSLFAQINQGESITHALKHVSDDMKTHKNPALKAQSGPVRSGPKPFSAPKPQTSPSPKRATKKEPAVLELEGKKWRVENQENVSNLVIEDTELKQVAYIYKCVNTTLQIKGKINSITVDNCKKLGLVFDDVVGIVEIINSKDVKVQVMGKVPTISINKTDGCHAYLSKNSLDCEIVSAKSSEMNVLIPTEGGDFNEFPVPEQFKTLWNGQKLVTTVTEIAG

[2] = biological target: T2, adenovirus-delivered human resistin (human), Q9HD89; assay: non-reducing SDS gel; conditions: remark: other sources report otherwise
T2 chain: B1 chain

| Binder | EC50 [1] | stoichiometry N [2] |
| --- | --- | --- |
| B1 | 784 nM |  |
| B2 |  | 3 and 2 |

Reference: PMC3969988
